Data set [1] addresses T1, MutS (TaqMutS) (Thermus aquaticus, UniProt Q56215 Q56215:1-811).
T1 sequence: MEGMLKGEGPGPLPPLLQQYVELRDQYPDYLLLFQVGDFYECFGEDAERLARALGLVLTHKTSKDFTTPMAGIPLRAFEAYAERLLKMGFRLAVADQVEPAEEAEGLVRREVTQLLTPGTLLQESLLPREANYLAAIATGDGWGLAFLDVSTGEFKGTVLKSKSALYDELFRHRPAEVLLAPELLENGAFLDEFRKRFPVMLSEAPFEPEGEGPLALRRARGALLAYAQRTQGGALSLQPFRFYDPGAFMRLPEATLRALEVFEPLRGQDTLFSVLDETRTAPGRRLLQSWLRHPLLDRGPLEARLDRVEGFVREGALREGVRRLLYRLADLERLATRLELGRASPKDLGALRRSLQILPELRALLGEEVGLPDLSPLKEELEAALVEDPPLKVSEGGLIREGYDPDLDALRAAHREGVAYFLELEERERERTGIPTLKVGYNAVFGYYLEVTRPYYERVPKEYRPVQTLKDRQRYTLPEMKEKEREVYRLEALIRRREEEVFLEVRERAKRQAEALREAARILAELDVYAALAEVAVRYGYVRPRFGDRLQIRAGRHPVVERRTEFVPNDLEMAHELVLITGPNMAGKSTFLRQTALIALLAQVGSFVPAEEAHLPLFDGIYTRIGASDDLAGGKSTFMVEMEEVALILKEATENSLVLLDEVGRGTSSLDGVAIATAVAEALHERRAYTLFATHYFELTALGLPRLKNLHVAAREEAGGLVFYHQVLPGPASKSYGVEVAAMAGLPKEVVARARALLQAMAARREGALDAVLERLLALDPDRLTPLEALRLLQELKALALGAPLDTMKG
The settings on record: error frequency 1/212 to 1/1593; 500 nM MutS, 40 nM DNA, 60 C.

Data set [2] deals with T1, MutS (TaqMutS). In words: homoduplex recovered in flow-through; white:blue ratio shifted 1:1 to 60:1. The settings on record: chain copies: 2; perfect duplex. As for the experimental part:
The 410 bp white:blue test heteroduplex was used to determine the best conditions for separation of a model A or T deletion heteroduplex from perfectly matched homoduplex molecules using TaqMutS. A defined ratio of heteroduplex and homoduplex 410 bp fragments were incubated with TaqMutS at 60° C. for 20 minutes and subsequently passed through enzyme removal columns (Micropure-EZ enzyme removers from Millipore). These columns are marketed as quick alternatives to phenol/chloroform methods for removing proteins from DNA. The aim was to retain the TaqMutS protein bound to heteroduplex DNA in the column and retrieve the homoduplex DNA in the flow-through.

In the data set with MutS (TaqMutS) [1], “354 bp synthetic DNA, error-containing population” registered an activity (% errors removed) greater than 85.

B1: 410 bp AflIII/EcoRI homoduplex (pUC121) (dsDNA)
DNA 1: GAAGAGCGCCC
DNA 2: GGGCGCTCTTC
As for B1, in the data set with MutS (TaqMutS) [2], the binding result is reported as “no binding”.
